The target in data set [1] is T1, TadA7.10 (Escherichia coli? (laboratory-evolved …, UniProt P68398 1-167, W23R;H36L;P48A;R51L;L84F;A106V;D108N;H123Y;S146C;D147Y;R152P;E155V;I156F;K157N)). Description: SEC; Superdex 200 Increase 10/300 GL, 20 mM HEPES pH7.5, 500 mM KCl; elution position between 44.0 and 29.0 kDa compared with the monomer mass of about 18.7 kDa. In general terms: SEC sorts molecules by how far they enter the pores of the column.

Another data set addresses TadA8e (E. coli) (UniProt P68398). The description is as above.
The target in the next data set is TadA7.10-3mut (Escherichia coli? (laboratory-evolved …, UniProt P68398 1-167, W23R;H36L;P48A;R51L;L84F;A106V;D108N;T111R;D119N;H123Y;S146C;D147Y;R152P;E155V;I …)). Description: MST; 5 mM Mg2+; MST: 20 mM HEPES pH 7.5, 200 mM KCl, 5 mM MgCl2, 1 mM DTT, 0.05% Tween-20; 100 nM DNA; 120 min at room temperature. To be noted: protein: recombinant; tags: N-terminal non-cleavable His6; chain copies: 2; label: 5' 6-FAM; single-stranded.

The target of data set [2] is T1, TadA7.10. The data set is described as above. Particulars: protein: recombinant; tags: N-terminal non-cleavable His6; chain copies: 2; label: 5' 6-FAM; single-stranded.

As usually defined, the stoichiometry N is the number of molecules, sites or subunits per partner or assembly. In the data set with TadA7.10 [1], “TadA7.10 (from UniProt P68398 1-167) (enzyme)” yielded a stoichiometry N of 2.

In the data set with TadA8e (E. coli), “TadA8e (from UniProt P68398 1-167) (enzyme)” yielded a stoichiometry N of 2.

A word on the Kd: it is the constant that tells how readily two partners part at equilibrium. Consider TTCTCTTCCACTTTCTTTT (ssDNA) [19-nt ssDNA (NTS of 6VPC with five bases mutated at either end)], for which the Kd in the data set with TadA7.10-3mut amounted to 38.5 nM; with TadA7.10 [2], 106 nM.

The values above are taken from publication PMC11335294, “Directed-evolution mutations enhance DNA-binding affinity and protein stability of the adenine base editor ABE8e”.
